Reference: patent EP0701605B2, “IMPROVED ENZYMES AND DETERGENTS CONTAINING THEM” (BASF SE, priority 1994, dated 1995)
Substitutions are numbered along the chain they refer to. Names may count otherwise.

Substrate: C[C@H](NC(=O)CCC(=O)O)C(=O)N[C@@H](C)C(=O)N1CCC[C@H]1C(=O)N[C@@H](Cc1ccccc1)C(=O)Nc1ccc([N+](=O)[O-])cc1
Assay: AAPF-pNA assay, kinetic parameters
Format: biochemical, Bacillus lentus DSM 5483
Conditions: 100 mM Tris pH 8.6, 25°C
Procedure: Two different protease assays were used. With the HPE method protease activity was established at a single concentration of casein as substrate. In the AAPF-pNA assay initial rates of succinyl-L-alanyl-L-alanyl-L-prolyi-L-phenylalanyl-p-nitroanilide (AAPF-pNA; Bachem Bioscience, Philadelphia, PA) supported catalysis were used to determine the kinetic parameters Km, kcat, and kcat/Km.
Protease samples were diluted with 50% (v/v) 1,2-propanediol in 100 mM Tris, adjusted with 2 N HCl to pH 8.6 at 25°C ('Tris-propanediol buffer'), in which they were stable for at least 6 h at room temperature. A stock solution of 160 mM AAPF-pNA was prepared in dimethylsulfoxide dried over molecular sieve beads (Aldrich; 4 A, 4-8 mesh) for at least 24 h prior to use. Fixed point assays were performed at 25°C with 1.6 mM AAPF-pNA in 100 mM Tris, adjusted with 2 N HCl to pH 8.6 at 25°C, in a total volume of 1.020 ml. The substrate was added to the assay buffer 1 minute prior to the assay initiation and the reaction was started by addition of enzyme at a final concentration of 20 ng to 1.3 µg of protein per ml (0.75 to 48.5 nM enzyme) depending on specific activity. Release of p-nitroanilide was monitored at 410 nm, and a molar extinction coefficient of 8,480 M^-1cm^-1 was used to calculate amount and concentration of product formed (DelMar, E.G., Largman, C., Brodrick, J.W., and Geokas, M.C. (1979) Anal Biochem. 99, 316-320).
Kinetic parameters were calculated from a velocity vs. substrate concentration plot constructed from initial rates measured once each at 12 different AAPF-pNA concentrations ranging from 0.16 to 3.2 mM. Data were fitted to a hyperbolic curve and proportionally weighted using the program ENZFITTER (Leatherbarrow, R.J. (1987) ENZFITTER. Biosoft, Cambridge, UK). A nominal molecular weight of 26.8 kDa was used in all calculations that required the interconversion of protein concentration and molarity of protease enzyme (Table 4).

[1] = other: F54, AAPF-pNA 0.16 to 3.2 mM
[2] = other: F55, AAPF-pNA 0.16 to 3.2 mM
[3] = other: M131, AAPF-pNA 0.16 to 3.2 mM
[4] = other: F11, AAPF-pNA 0.16 to 3.2 mM
[5] = other: F43, AAPF-pNA 0.16 to 3.2 mM
[6] = other: F44, AAPF-pNA 0.16 to 3.2 mM
[7] = other: F45, AAPF-pNA 0.16 to 3.2 mM
[8] = other: F46, AAPF-pNA 0.16 to 3.2 mM
[9] = other: F47, AAPF-pNA 0.16 to 3.2 mM
[10] = other: F49, AAPF-pNA 0.16 to 3.2 mM

B1: Bacillus lentus DSM 5483 alkaline protease (BLAP) variant F54, S3T + V41 + R99G + A188P + V193M + V199I + L211D, SEQ ID NO:17 (Lederbergia lenta; … (protein)
chain: AQTIPWGISRVQAPAAHNRGLTGSGVKVAVLDTGISTHPDLNIRGGASFVPGEPSTQDGNGHGTHVAGTIAALNNSIGVLGVAPSAELYAVKVLGADGGGAISSIAQGLEWAGNNGMHVANLSLGSPSPSATLEQAVNSATSRGVLVVAASGNSGASSISYPARYANAMAVGATDQNNNRASFSQYGPGLDIMAPGVNIQSTYPGSTYASDNGTSMATPHVAGAAALVKQKNPSWSNVQIRNHLKNTATSLGSTNLYGSGLVNAEAATR
notes: made in house; host or cells: Bacillus subtilis DB104
- Km [1]: 5500 µM
- kcat [1]: 7 s⁻¹
- kcat/Km [1]: 1300 M⁻¹ s⁻¹

B2: Bacillus lentus DSM 5483 alkaline protease (BLAP) variant F55, S3T + V41 + S154E + A188P + V193M + V1991 + L211D, SEQ ID NO:18 (Lederbergia lenta; … (protein)
chain: B1 chain with G99R, S154E
notes: as for B1
- Km [2]: 4300 µM
- kcat [2]: 11 s⁻¹
- kcat/Km [2]: 2600 M⁻¹ s⁻¹

B3: Bacillus lentus DSM 5483 alkaline protease (BLAP) variant M131, S3T + V41 + A188P + V193M + V1991, SEQ ID NO: 24 (Lederbergia lenta; A188P/S3T/V193M/V199I/V4I) (protein)
chain: B1 chain with G99R, D211L
notes: site-specific mutagenesis of DNA encoding the mature form of wild type BLAP; made in house; host or cells: Bacillus subtilis DB104
- Km [3]: 980 µM
- kcat [3]: 153 s⁻¹
- kcat/Km [3]: 156000 M⁻¹ s⁻¹

B4: Bacillus lentus DSM 5483 alkaline protease (BLAP) variant F11, S3T + R99S + A188P + V193M + V1991, SEQ ID NO:10 (Lederbergia lenta; A188P/R99S/S3T/V193M/V199I) (protein)
chain: B1 chain with I4V, G99S, D211L
notes: as for B1
- Km [4]: 1880 µM
- kcat [4]: 174 s⁻¹
- kcat/Km [4]: 92000 M⁻¹ s⁻¹

B5: Bacillus lentus DSM 5483 alkaline protease (BLAP) variant F43, S3T + V41 + R99G + A188P + V193M + V1991, SEQ ID NO:11 (Lederbergia lenta; … (protein)
chain: B1 chain with D211L
notes: as for B1
- Km [5]: 1730 µM
- kcat [5]: 171 s⁻¹
- kcat/Km [5]: 99000 M⁻¹ s⁻¹

B6: Bacillus lentus DSM 5483 alkaline protease (BLAP) variant F44, S3T + V41 + R99A + A188P + V193M + V1991, SEQ ID NO:12 (Lederbergia lenta; … (protein)
chain: B1 chain with G99A, D211L
notes: as for B1
- Km [6]: 2490 µM
- kcat [6]: 257 s⁻¹
- kcat/Km [6]: 103000 M⁻¹ s⁻¹

B7: Bacillus lentus DSM 5483 alkaline protease (BLAP) variant F45, S3T + V41 + R99S + A188P + V193M + V1991, SEQ ID NO:13 (Lederbergia lenta; … (protein)
chain: B1 chain with G99S, D211L
notes: as for B1
- Km [7]: 3050 µM
- kcat [7]: 208 s⁻¹
- kcat/Km [7]: 68000 M⁻¹ s⁻¹

B8: Bacillus lentus DSM 5483 alkaline protease (BLAP) variant F46, S3T + V41 + S154E + A188P + V193M + V1991, SEQ ID NO:14 (Lederbergia lenta; … (protein)
chain: B1 chain with G99R, S154E, D211L
notes: as for B1
- Km [8]: 2000 µM
- kcat [8]: 358 s⁻¹
- kcat/Km [8]: 179000 M⁻¹ s⁻¹

B9: Bacillus lentus DSM 5483 alkaline protease (BLAP) variant F47, S3T + V41 + S154D + A188P + V193M + V1991, SEQ ID NO:15 (Lederbergia lenta; … (protein)
chain: B1 chain with G99R, S154D, D211L
notes: as for B1
- Km [9]: 2000 µM
- kcat [9]: 249 s⁻¹
- kcat/Km [9]: 124000 M⁻¹ s⁻¹

B10: Bacillus lentus DSM 5483 alkaline protease (BLAP) variant F49, S3T + V4I + A188P + V193M + V1991 + L211D, SEQ ID NO:16 (Lederbergia lenta; … (protein)
chain: B1 chain with G99R
notes: as for B1
- Km [10]: 3500 µM
- kcat [10]: 38 s⁻¹
- kcat/Km [10]: 11000 M⁻¹ s⁻¹
